Measured values from article PMC6826516 (2019).

B1: SmBiT-TAZ-Flag (TAZ aa 13-119), wild type [not stated] / LgBiT-TEAD1-Myc (TEAD1 aa 194-411), wild type [not stated] (parent complex)
chain 1: PGQQVIHVTQDLDTDLEALFNSVMNPKPSSWRKKILPESFFKEPDSGSHSRQSSTDSSGGHPGPRLAGGAQHVRSHSSPASLQLGTGAGAAGSPAQQHAHLRQQSYD
chain 2: RSIGTTKLRLVEFSAFLEQQRDPDSYNKHLFVHIGHANHSYSDPLLESVDIRQIYDKFPEKKGGLKELFGKGPQNAFFLVKFWADLNCNIQDDAGAFYGVTSQYESSENMTVTCSTKVCSFGKQVVEKVETEYARFENGRFVYRINRSPMCEYMINFIHKLKHLPEKYMMNSVLENFTILLVVTNRDTQETLLCMACVFEVSNSEHGAQHHIYRLVKD

Variants of: B1
Experiment: NanoBiT assay (split-luciferase biosensor) in lysates of transfected HEK293T cells; 48 h after transfection; equal amounts of each biosensor plasmid; read off a plot

Row | response | Variant
1 | ~430 fold over LgBiT-TEAD1 alone | chain 1 W31A, chain 1 K34A, chain 1 L36A, chain 1 S39A, chain 1 F40A, chain 1 F41A
